Results reported in PMC5511257, “Plasticity in the Oxidative Folding Pathway of the High Affinity Nerita Versicolor Carboxypeptidase Inhibitor (NvCI)” (Scientific Reports, 2017).
Bridges are numbered along the chain shown (N, C = ends). Where no end group is shown, it is not given here.

T1: Human carboxypeptidase B1 (hCPB1) (human, UniProt P15086 111-417)
T1 construct: also called human CPB1
T1 sequence (looked up): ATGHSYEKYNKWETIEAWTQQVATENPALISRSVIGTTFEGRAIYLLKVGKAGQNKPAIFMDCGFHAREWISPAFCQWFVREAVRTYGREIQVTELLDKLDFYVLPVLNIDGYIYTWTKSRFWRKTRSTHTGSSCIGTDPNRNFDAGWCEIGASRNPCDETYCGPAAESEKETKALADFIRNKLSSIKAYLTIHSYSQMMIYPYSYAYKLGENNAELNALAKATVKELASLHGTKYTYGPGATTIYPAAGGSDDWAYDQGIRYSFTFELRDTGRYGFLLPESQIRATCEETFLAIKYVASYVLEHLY

T2: Porcine carboxypeptidase B (pCPB1) (porcine, UniProt P09955 111-416)
T2 construct: Porcine carboxypeptidase B (CPB1), purchased active enzyme; also called porcine CPB1; source: bought: Sigma
T2 sequence (looked up): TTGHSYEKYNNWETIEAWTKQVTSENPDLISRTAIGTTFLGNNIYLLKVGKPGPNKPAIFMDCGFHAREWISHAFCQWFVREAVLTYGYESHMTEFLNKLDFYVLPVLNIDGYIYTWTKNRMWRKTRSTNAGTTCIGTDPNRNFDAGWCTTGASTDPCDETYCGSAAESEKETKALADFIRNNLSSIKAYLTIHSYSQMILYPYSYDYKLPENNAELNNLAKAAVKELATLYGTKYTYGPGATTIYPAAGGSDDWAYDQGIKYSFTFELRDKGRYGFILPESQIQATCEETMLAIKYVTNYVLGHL

T3: Human carboxypeptidase A1 (hCPA1) (human, UniProt P15085 111-419)
T3 construct: also called human CPA1
T3 sequence (looked up): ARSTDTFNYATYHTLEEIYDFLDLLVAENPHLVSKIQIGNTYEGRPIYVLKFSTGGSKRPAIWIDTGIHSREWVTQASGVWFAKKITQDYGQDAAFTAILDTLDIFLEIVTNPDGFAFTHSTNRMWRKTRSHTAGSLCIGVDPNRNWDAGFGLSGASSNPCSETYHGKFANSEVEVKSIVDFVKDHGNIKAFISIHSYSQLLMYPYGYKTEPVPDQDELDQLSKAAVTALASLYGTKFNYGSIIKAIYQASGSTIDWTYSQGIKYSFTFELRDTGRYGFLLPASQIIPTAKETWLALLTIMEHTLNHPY

T4: Bovine carboxypeptidase A (bCPA1) (bovine, UniProt P00730 111-419)
T4 construct: Bovine carboxypeptidase A (CPA1), purchased active enzyme; also called bovine CPA1; source: bought: Sigma
T4 sequence (looked up): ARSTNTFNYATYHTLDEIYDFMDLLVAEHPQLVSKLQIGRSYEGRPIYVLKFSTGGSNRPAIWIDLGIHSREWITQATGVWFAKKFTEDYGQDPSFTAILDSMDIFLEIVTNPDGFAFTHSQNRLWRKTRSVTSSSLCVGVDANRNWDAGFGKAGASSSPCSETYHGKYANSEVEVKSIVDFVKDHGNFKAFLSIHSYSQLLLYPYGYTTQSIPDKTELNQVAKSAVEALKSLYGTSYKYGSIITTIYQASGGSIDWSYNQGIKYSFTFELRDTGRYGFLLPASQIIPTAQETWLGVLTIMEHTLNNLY

B1: Nerita versicolor carboxypeptidase inhibitor (NvCI), native (natural protein, UniProt P86912 1-53, looked up)
chain: FHVPDDRPCINPGRCPLVPDATCTFVCKAADNDFGYECQHVWTFEGQRVGCYA
modifications: disulfide 15-51, 9-23, 27-38
notes: comprises 53 residues, C-terminal tail Cys51-Tyr52-Ala53; also called native NvCI; 3S-S native form; source: Pichia pastoris, secreted into the extracellular medium, purified (ion exchange, size exclusion); repurified by RP-HPLC
B2: des(15–51) NvCI folding/unfolding intermediate (natural protein, Nerita versicolor, UniProt P86912 1-53, looked up)
chain: B1 chain
modifications: disulfide 9-23, 27-38; cysteine pairing not given here
notes: differs only in the missing Cys15-Cys51 disulfide; also called intermediate IIb; fraction IIb

Legend:
Details in all cases: both partners purified
[1] = biological target: T1, Human carboxypeptidase B1 (hCPB1); assay: enzyme inhibition kinetics (tight-binding inhibitor, Morrison equation); CPBs: inhibition of hydrolysis of N-(4-methoxyphenylazoformyl)-Arg-OH (0.1 mM) at 355 nm; 20 mM Tris-HCl pH 7.5, 1% v/v DMSO, 0.05% w/v Brij-35, 0.1 M NaCl; 37 °C; enzyme constant (6.0 nM hCPB1 and pCPB1), increasing amounts of inhibitor
[2] = biological target: T2, Porcine carboxypeptidase B (pCPB1); assay: as above
[3] = biological target: T3, Human carboxypeptidase A1 (hCPA1); assay: enzyme inhibition kinetics (tight-binding inhibitor, Morrison equation); CPAs: inhibition of hydrolysis of N-(4-methoxyphenylazoformyl)-Phe-OH (0.1 mM) at 355 nm; 20 mM Tris-HCl pH 7.5, 1% v/v DMSO, 0.05% w/v Brij-35, 0.5 M NaCl; 37 °C; enzyme constant (7.5 nM hCPA1, 6.0 nM bCPA1), increasing amounts of inhibitor
[4] = biological target: T4, Bovine carboxypeptidase A (bCPA1); assay: as above

Binder	Ki [1]	Ki [2]	Ki [3]	Ki [4]
B1	0.62 nM	0.53 nM	0.00118 nM	0.00491 nM
B2	7.85 nM	4.9 nM	1 nM	2.01 nM
